Experimental data reported in patent US20120082661A1 (Biogen, published 2012).
Substitutions are numbered along the chain they refer to.

T1: human BCMA (B cell maturation antigen) (human, UniProt Q02223 1-184)
T1 chain: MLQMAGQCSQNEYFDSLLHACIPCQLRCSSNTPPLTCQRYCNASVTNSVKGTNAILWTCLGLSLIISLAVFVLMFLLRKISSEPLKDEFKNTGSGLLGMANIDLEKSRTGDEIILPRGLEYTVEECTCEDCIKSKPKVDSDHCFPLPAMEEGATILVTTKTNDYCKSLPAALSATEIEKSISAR

B1: chC12A3.2 (antibody, human IgG1, kappa, V domains shown)
VH: QIQLVQSGPELKKPGETVKISCKASGYTFRHYSMNWVKQAPGKGLKWMGRINTESGVPIYADDFKGRFAFSVETSASTAYLVINNLKDEDTASYFCSNDYLYSLDFWGQGTTLTVSS
VL: DIVLTQSPPSLAMSLGKRATISCRASESVTILGSHLIYWYQQKPGQPPTLLIQLASNVQTGVPARFSGSGSRTDFTLTIDPVEEDDVAVYYCLQSRTIPRTFGGGTKLEIKR
B2: chC13F12.1 (antibody, human IgG1, kappa, V domains shown)
VH: B1 VH with R30T, S55T, V57E, I59L, V72L, D88N, S93T, Y94F, L104C, F106Y
VL: B1 VL
B3: chC11D5.3 (antibody, human IgG1, kappa, V domains shown)
VH: QIQLVQSGPELKKPGETVKISCKASGYTFTDYSINWVKRAPGKGLKWMGWINTETREPAYAYDFRGRFAFSLETSASTAYLQINNLKYEDTATYFCALDYSYAMDYWGQGTTLTVSS
VL: B1 VL with Y38H
B4: chA7D12.2 (antibody, human IgG1, kappa, V domains shown)
VH: QIQLVQSGPDLKKPGETVKLSCKASGYTFTNFGMNWVKQAPGKGFKWMAWINTYTGESYFADDFKGRFAFSVETSATTAYLQINNLKTEDTATYFCARGEIYYGYDGGFAYWGQGTLVTVSA
VL: DVVMTQSHRFMSTSVGDRVSITCRASQDVNTAVSWYQQKPGQSPKLLIFSASYRYTGVPDRFTGSGSGADFTLTISSVQAEDLAVYYCQQHYSTPWTFGGGTKLDIKR

What was measured:
[1] = target: T1, human BCMA (B cell maturation antigen); assay: cell-based or functional assay
[2] = target: T1, human BCMA (B cell maturation antigen); assay: cell-based or functional assay

| Binder | % Killing at 1 nM (ADCC of U266 cells, PBMC effectors, LDH release) [1] | % Killing at 1 nM (ADCC of JJN-3 cells, PBMC effectors, LDH release) [2] |
| --- | --- | --- |
| B1 | 32% | 5% |
| B2 | 20% | 3% |
| B3 | 18% | – |
| B4 | 10% | 20% |
